US20190367606A1 (CENTRE FOR DRUG RESEARCH AND DEVELOPMENT, published 2019)
Each block holds one molecule with its values, some of them ahead of it.

How the values were obtained:
[1] = molecular target: T1, human podocalyxin (human, UniProt O00592 23-558); assay: flow cytometry, control antibody, T47-D cells
T1 construct: also called hPodo; hPodocalyxin
T1 sequence: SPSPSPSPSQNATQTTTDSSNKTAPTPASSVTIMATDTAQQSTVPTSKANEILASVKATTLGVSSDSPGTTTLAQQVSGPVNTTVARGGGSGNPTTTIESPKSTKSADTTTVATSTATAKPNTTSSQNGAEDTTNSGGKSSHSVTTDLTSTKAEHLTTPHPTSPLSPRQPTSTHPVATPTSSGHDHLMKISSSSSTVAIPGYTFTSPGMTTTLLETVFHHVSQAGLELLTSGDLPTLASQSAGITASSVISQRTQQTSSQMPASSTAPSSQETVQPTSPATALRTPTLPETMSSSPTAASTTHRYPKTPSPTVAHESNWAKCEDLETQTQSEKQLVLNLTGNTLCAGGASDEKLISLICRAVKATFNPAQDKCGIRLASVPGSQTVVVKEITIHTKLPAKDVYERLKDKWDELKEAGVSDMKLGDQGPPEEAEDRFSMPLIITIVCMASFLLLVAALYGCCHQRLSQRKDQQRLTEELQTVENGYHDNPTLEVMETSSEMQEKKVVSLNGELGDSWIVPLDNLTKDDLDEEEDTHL

[2] = molecular target: T1, human podocalyxin; assay: flow cytometry, control antibody, HUVEC cells
[3] = molecular target: T1, human podocalyxin; assay: flow cytometry, control antibody, MDA-MB-231 cells
[4] = molecular target: T1, human podocalyxin; assay: flow cytometry, control antibody, CaOV3 cells
[5] = molecular target: T1, human podocalyxin; assay: flow cytometry, control antibody, A172 cells
[6] = molecular target: T1, human podocalyxin; assay: flow cytometry, control antibody, OVCAR10 cells
[7] = molecular target: T1, human podocalyxin; assay: flow cytometry, control antibody, SKOV3 cells
[8] = molecular target: T1, human podocalyxin; assay: flow cytometry, control antibody, 293 HEK cells
[9] = molecular target: T1, human podocalyxin; assay: flow cytometry, control antibody, OVCAR3 cells
[10] = molecular target: T1, human podocalyxin; assay: flow cytometry, control antibody, MCF7 cells
[11] = molecular target: T1, human podocalyxin; assay: flow cytometry, well H01 (left column, cell type not labelled: MDA-MB-231 or MDA-MB-231/hPodo); vertical gate at FL4-H about 10^3.2, cutting the right edge of the control population; the gate differs from that of the Ab-1 panels
[12] = molecular target: T1, human podocalyxin; assay: flow cytometry, well H03 (right column, cell type not labelled: MDA-MB-231 or MDA-MB-231/hPodo); vertical gate at FL4-H about 10^3.2; the gate differs from that of the Ab-1 panels
[13] = molecular target: T1, human podocalyxin; assay: flow cytometry, control, 1:5, hPodo/MDA-MB-231 transient transfectants
[14] = molecular target: T1, human podocalyxin; assay: flow cytometry, control, 1:125, MDA-MB-231 cells
[15] = molecular target: T1, human podocalyxin; assay: flow cytometry, control, 1:5, MDA-MB-231 cells
[16] = molecular target: T1, human podocalyxin; assay: flow cytometry, control, Neat, MDA-MB-231 cells
[17] = molecular target: T1, human podocalyxin; assay: flow cytometry, control, Neat, hPodo/MDA-MB-231 transient transfectants
[18] = molecular target: T1, human podocalyxin; assay: flow cytometry, control, 1:125, hPodo/MDA-MB-231 transient transfectants
[19] = molecular target: T1, human podocalyxin; assay: flow cytometry, control, 2:15 (so in the source), MDA-MB-231 cells
[20] = molecular target: T1, human podocalyxin; assay: flow cytometry, control, 2:15 (so in the source), hPodo/MDA-MB-231 transient transfectants
[21] = molecular target: T1, human podocalyxin; assay: cross competition FACS, MDA-MB-231 cells; row antibody (isotype control) unlabelled 25 ug/mL first; competitor (detected): B-Ova 12 5 ug/mL (control)
[22] = molecular target: T1, human podocalyxin; assay: cross competition FACS, MDA-MB-231 cells; row antibody (isotype control) unlabelled 25 ug/mL first; competitor (detected): biotinylated Rb/Hu Podo83 5 ug/mL
[23] = molecular target: T1, human podocalyxin; assay: cross competition FACS, MDA-MB-231 cells; row antibody (isotype control) unlabelled 25 ug/mL first; competitor (detected): B-3G2.2 5 ug/mL
[24] = molecular target: T1, human podocalyxin; assay: cross competition FACS, MDA-MB-231 cells; row antibody (isotype control) unlabelled 25 ug/mL first; competitor (detected): B-mlgG1 5 ug/mL (control)
[25] = molecular target: T1, human podocalyxin; assay: cross competition FACS, MDA-MB-231 cells; FACS Buffer row (no unlabelled antibody); B-mlgG1 5 ug/mL (control)
[26] = molecular target: T1, human podocalyxin; assay: flow cytometry, supernatant 2:15 (so in the source), MDA-MB-231 cells
Method: (§1) The following antibodies were transiently transfected in 293HEK cells, transfected cells were incubated for 96 hours, antibody containing supernatant was then serially titrated in FACS sample buffer. The following supernatants were used as test samples:
(§2) MDA transient transfectants were established as essentially described above in Example 1. MDA transient transfectants and MDA-MB-231 cells were seeded in 96-well v bottom plates at 75,000 cells/well. Cells were pelleted by centrifugation at 400 g for 3 min. Supernatant was removed. The cell pellets were resuspended in 20 μl of the antibody or control supernatants. The plate was incubated on ice for 1 hour.
(§3) The cells were washed by adding 200 μl FACS buffer to dilute unbound antibody. The plate was centrifuged at 400 g for 3 min to pellet cells. The supernatant was removed and repeated. The cell pellets were resuspended in 25 μl of either goat anti-Hu IgG Fc-Alexa647, goat anti-Mouse IgG Fc-Alexa647, or goat anti-rabbit IgG0Fc-A647 (2 μg/ml) and 7A.A.D (2.5 μg/ml). The plates were incubated on ice for 0.5 hours. The wash procedure was again repeated 2×. The cell pellets were finally resuspended in 75 μl FACS buffer and read on the HTFC™ Screening System (IntelliCyt Corporation) (3 sec sip, 1.5 up time) and analyzed on the HyperView® software (IntelliCyt Corporation).

[27] = molecular target: T1, human podocalyxin; assay: flow cytometry, supernatant 1:125, MDA-MB-231 cells
Method: as §1, §2, §3

[28] = molecular target: T1, human podocalyxin; assay: flow cytometry, supernatant Neat, MDA-MB-231 cells
Method: as §1, §2, §3

[29] = molecular target: T1, human podocalyxin; assay: flow cytometry, supernatant 1:5, hPodo/MDA-MB-231 transient transfectants
Method: as §1, §2, §3

[30] = molecular target: T1, human podocalyxin; assay: flow cytometry, supernatant Neat, hPodo/MDA-MB-231 transient transfectants
Method: as §1, §2, §3

[31] = molecular target: T1, human podocalyxin; assay: flow cytometry, supernatant 2:15 (so in the source), hPodo/MDA-MB-231 transient transfectants
Method: as §1, §2, §3

[32] = molecular target: T1, human podocalyxin; assay: flow cytometry titration on 293-6E cells (endogenous podocalyxin), 24 hours at 4 C
Method: (§4) The affinities of huPodo 83 1:1 and huPodo 83 2:1 antibodies were determined against endogenously expressed podocalyxin on 293 HEK cells. 293-6E cells were seeded in 96-well v bottom plates at 100,000 cells/well. The cells were pelleted at 400 g for 3 min and the supernatant was discarded. The cells were placed on ice and antibody 1:3 titrations were prepared using ice cold medium. The cells were resuspended in the prepared antibody titrations at 25 μl/well and incubated at 4° C. for either 24 or 48 hours. 200 μl 1% FBS/PGS (FACS buffer) was added to each well. The cells were pelleted at 400 g for 3 min and supernatant removed. The wash was repeated 2 more times. The cells were resuspended in goat anti-human IgGFc-A647 (2 μg/ml)+2.5 μg/ml 7AAD and incubated on ice for 30 min. The cells were washed as above and resuspended in 50 μl FACS buffer. The cells were analyzed by flow cytometry using the HTFC™ Screening System (IntelliCyt Corporation) (3 sec sip, 1.5 sec up) and the C6 cytometer (Becton Dickenson).

[33] = molecular target: T1, human podocalyxin; assay: flow cytometry, supernatant 1:5, MDA-MB-231 cells
Method: as §1, §2, §3

[34] = molecular target: T1, human podocalyxin; assay: flow cytometry, supernatant 1:125, hPodo/MDA-MB-231 transient transfectants
Method: as §1, §2, §3

[35] = molecular target: T1, human podocalyxin; assay: kinetic exclusion assay (KinExA 3200), MDA-MB-231 cells
Method: The concentration dependence of free anti-podocalyxin antibody as a function of MDA-MB231 cell number was determined using a KinExA 3200 instrument (Sapidyne Instruments). Briefly, MDA-MB-231 cells, which express endogenous podocalyxin, were titrated 1:2 from 10×10⁶ cells/mL down 12 steps, and incubated with a fixed concentration of anti-podocalyxin antibodies. MDA-MB231 cells and cell bound antibodies were then isolated by centrifugation. Supernatant containing free, unbound antibody was then transferred to a new tube. The supernatant containing free unbound antibody was passed over the column containing PMMA beads coated with a goat anti-IgG-Fc capture antibody. The amount of free antibody captured on the PMMA beads was then measured using a goat anti-IgG-Fc-A647. This process was repeated for every cell concentration. For each sample assayed a new column of PMMA beads with the goat anti-IgG-Fc capture antibody was packed. The concentration of free antibody over the entire 12 step dilution series was then used to determine the antibody Kd's using the standard Kd template in the KineExA Pro Software (Sapidyne Instruments).

[36] = molecular target: T1, human podocalyxin; assay: flow cytometry titration on 293-6E cells (endogenous podocalyxin), 48 hours at 4 C
Method: as §4

[37] = molecular target: T1, human podocalyxin; assay: kinetic exclusion assay (KinExA 3200), A172 cells

Molecule: MsIgG2a (antibody)
Live cell GeoMean FL (geometric mean fluorescence units) [1]: 787
Live cell GeoMean FL (geometric mean fluorescence units) [2]: 484
Live cell GeoMean FL (geometric mean fluorescence units) [3]: 478
Live cell GeoMean FL (geometric mean fluorescence units) [4]: 892
Live cell GeoMean FL (geometric mean fluorescence units) [5]: 797
Live cell GeoMean FL (geometric mean fluorescence units) [6]: 618
Live cell GeoMean FL (geometric mean fluorescence units) [7]: 485
Live cell GeoMean FL (geometric mean fluorescence units) [8]: 556
Live cell GeoMean FL (geometric mean fluorescence units) [9]: 708
Live cell GeoMean FL (geometric mean fluorescence units) [10]: 1130

Molecule: Rb IgG (antibody)
flow cytometry fluorescence (name not given) [13]: 660
flow cytometry fluorescence (name not given) [14]: 431
flow cytometry fluorescence (name not given) [15]: 467
flow cytometry fluorescence (name not given) [16]: 574
flow cytometry fluorescence (name not given) [17]: 762
flow cytometry fluorescence (name not given) [18]: 645
flow cytometry fluorescence (name not given) [19]: 438
flow cytometry fluorescence (name not given) [20]: 617

B1: Rb/Hu Podo83 (Podo83 rabbit VH and VL, human IgG1 chimera) (antibody, V domains shown)
VH: QSLAESGGRLVTPGTPLTLTCTASGIDLSSYAMGWVRQAPGKGLEYIGFIYASGSIFYASWAKGRFTISKTSSTTVDLKMTSLTTEDTATYFCARAGYYFGGNYDLNLWGQGTLVTVSS
VL: DIVLTQTPASVEVAVGGTVTIKCQASQSISNYLAWYQRKPGQPPRLLIYRASTLASGVSSRFKGSGSGTQFTLTISGVECADAATYYCQQGYVSNNLDNIFGGGTEVVVK
notes: Rabbit variable domains cloned into human IgG1 and human Ig kappa constant region constructs (pTT5/IgG1, pTT5/Igk); also called anti-PODO; Ab-1
flow cytometry fluorescence (name not given) [26]: 102000
flow cytometry fluorescence (name not given) [27]: 50600
flow cytometry fluorescence (name not given) [28]: 143000
flow cytometry fluorescence (name not given) [29]: 99300
flow cytometry fluorescence (name not given) [30]: 79000
flow cytometry fluorescence (name not given) [31]: 155000
IC50 [32]: 0.0295 µg/mL
flow cytometry fluorescence (name not given) [33]: 121000
flow cytometry fluorescence (name not given) [34]: 58500
Kd [35]: 0.0456 nM
IC50 [36]: 0.0305 µg/mL
Kd [37]: 0.103 nM

Second part, the molecule after the results:

Live cell GeoMean FL (geometric mean fluorescence units) [1]: 667
Q2-LR % of gated cells (FL4-H above the gate) [11]: 17.2%
Live cell GeoMean FL (geometric mean fluorescence units) [2]: 489
Live cell GeoMean FL (geometric mean fluorescence units) [3]: 477
Live cell GeoMean FL (geometric mean fluorescence units) [4]: 767
Live cell GeoMean FL (geometric mean fluorescence units) [5]: 644
Live cell GeoMean FL (geometric mean fluorescence units) [6]: 653
Q2-LR % of gated cells (FL4-H above the gate) [12]: 3.5%
Live cell GeoMean FL (geometric mean fluorescence units) [8]: 446
Live cell GeoMean FL (geometric mean fluorescence units) [9]: 629
Live cell GeoMean FL (geometric mean fluorescence units) [10]: 657
Molecule: Control Rb/HuIgG1 (antibody)

FACS signal of the biotinylated antibody named under assay [21]: 458
FACS signal of the biotinylated antibody named under assay [22]: 124000
FACS signal of the biotinylated antibody named under assay [23]: 26600
FACS signal of the biotinylated antibody named under assay [24]: 414
FACS signal of the biotinylated antibody [25]: 419
Molecule: mlgG1 (antibody)
